Data as given in article PMC2852889.

Target: human serum amyloid P (human), P02743
Assay: SPR
Details: remark: other sources report otherwise

Chain of human serum amyloid P (human), P02743 (P02743 20-223): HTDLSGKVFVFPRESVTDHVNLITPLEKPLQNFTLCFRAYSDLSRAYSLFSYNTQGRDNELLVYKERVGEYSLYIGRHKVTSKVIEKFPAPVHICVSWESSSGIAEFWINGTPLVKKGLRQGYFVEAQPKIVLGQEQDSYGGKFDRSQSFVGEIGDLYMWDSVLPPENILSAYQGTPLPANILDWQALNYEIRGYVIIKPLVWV

B1: hFcγRIIIB, O75015 17-200 (receptor)
chain: GMRTEDLPKAVVFLEPQWYSVLEKDSVTLKCQGAYSPEDNSTQWFHNENLISSQASSYFIDAATVNDSGEYRCQTNLSTLSDPVQLEVHIGWLLLQAPRWVFKEEDPIHLRCHSWKNTALHKVTYLQNGKDRKYFHHNSDFHIPKATLKDSGSYFCRGLVGSKNVSSETVNITITQGLAVSTIS
With B1 the Kd was 0.37 nM.
